According to the domain aggregation screens of Martell et al. (2025):

Assay: soluble fraction after stress (log2 fold change); higher = more stays soluble; pooled small domains, quantitative proteomics
Conditions: stress: 50 degC
Method in brief: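 Pooled custom libraries of small protein domains were each held under stress at 50°C. The read-out, high-throughput quantitative proteomics, tracked how much of each protein stayed soluble. This is reported as a base-two log fold change used to indicate aggregation propensity. Higher values mean more protein remains in solution.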

| Sequence | soluble fraction (log2) |
| --- | --- |
| HMGTPKMPLSLYLSMVENLRSLKRFALVNQQVKDGFVFFNDVAGIKRLQELLNYHNTGEKPSE | -1.39 |
| HMGTRIQAVMEDIQSRIAARTYLPGTRLPSVRAQAQAMQVSVSTVVEAYERLAAEGVIASRPGSGFYVAGP | -1.44 |
| HMGTRPAYAADAPNPQKRFIYHRIVDQLRNKATGAPISYRAIAAETGVSVQTVINIKNRMNQMLSEK | -0.0598 |
| HMGTRPIQIASFSKEENAKRAVEALAKIGITAQPQKSGSATKAVWGVVANGDADLLAKIKAAGFADAYFL | 0.0667 |
| HMGTRTILGIDPGSRKTGFGIIRLDGSRTHYVSSGVIRIPDTALPERLKIIFASLNEIIQQFQPQEV | 0.0673 |
| HMGTRYVEFVIPGTGNHEVRIVSSNGSRQNVEVAGTYPGGARLRTKVDNGVRRVSFYVDNRLVEEKQ | 0.0416 |
| HMGTSFKITFYKDAFQVDDGPIRMLNDPANQKFVDEVSQGYAPKELIGQGGKAPEIDIIDKRSENAPT | 0.128 |
| HMGTVFTDIMTDIASGKFPNVFPDSLEAQIQKNVTMAPDKLSATLQYGDKSVILPTTKGKEAAEAAVKAA | -0.0555 |
| HMGTYTSALDGIKGLGKKRKMLLLNTYKSIDVLKSVPLTELSQLIPREVAEALLTKLNRVDD | -0.118 |
| HMGVDASVDSKLDLLSQVLDSDQVKEQLPEAVLEQLAQNLDRWRSLHEESELQDDDIAELNRLLGLFGLG | 0.0425 |
| HMGVEKHLRITGTSTVSWKDAIVQAVAEASKTIDYLSNVKIIEQRARIDGKKLVEYFVDLDLSFVID | -0.0917 |
| HMGVGITAPLAGNIFKIVVQPGDVVASGDVVLVLEAMKMETEIRAASGGTVSQVLVREGDAVDAGHTLITL | -0.764 |
| HMGVGVTAPLAGNIFKIVKQPGDVVASGDVVLILEAMKMETEIRAAAGGTVKQVLVREGDAVDAGHTLMTL | -0.309 |
| HMGVHSVVPDIKNKHYGEAKAILAANGLSIEISDSIYDRSVAPGTVVESWPKAGAIVKGDRAVFVTLTAF | -1.28 |
| HMGVMTGAEFVGNTVASVERNLIIDTLKHTMGNRTTAANILGISIRTLRNKLKQYQNEGFDIPE | -0.703 |
| HMGVPELHKGEIVQAVVEKVLGEGLLRVNLKGMTVEAATSLRLNPGQQLLLRSEGIENGRQVLR | 0.00868 |
| HMGVQKGKDNALAVQQWIAERDATGDFGEYERRGIINRSALFDELGIPRSSMGSNDQIRQMIEAADVRWF | -0.189 |
| HMGVREIIVQFLEQFDKPKSVQEIVEYVLRYRNTTENSIRSTMYSGSQFRQFDNGYFGLSDKSYPNEYIYA | -0.603 |
| HMGVRLAPEVDRIPYGQMHPNLKKVKDLYEASYKAYVQALSSGNQALAKEKLEEFQSTKARYQRALSAYT | 0.189 |
| HMGVRVEVDAVTPPGAMASGSVVFSDGESKKWSVDQFGRLAMTGGAPDYKPSDQDVMEFQQQLEQSL | 0.054 |
| HMGVSAGQVRGLIRNLIAGEDKSKPLSDLALERELEKREIRISRRTVAKYRAELGIPNSDQRRYLP | -0.642 |
| HMGVSLKEIQENLSLIDDAAQKLASGQGTVDDAVGMGNAGKDIYDNIEGYVSSPKEFINGVLSSV | -0.104 |
| HMGVSVNVQPAILDWAMQKAQMGNAGSSVIEMIAKWISGEKAPTFNQIEDVSKKISIPFGFFFLKEPPIE | -0.951 |
| HMGVTGYPNPTREHITWDDARRIEVWNAYGVPVADLRFARGVLDVAGWPVGTYVARIDGGRSVRFVVI | -0.19 |
| HMGVTVDEVHRNFESGMNVVHKKFGAGVVDSFDEGKIRINFDGVIKVFIADVLINSGMLESVSYTH | -0.212 |

| Sequence | soluble fraction (log2) |
| --- | --- |
| HMGWEDLVGKTAVVKVALAPVGMVFFRGEFWSAISETGRIEPGEEVTISRIDGLKLYVTKKRIM | -0.607 |
| HMGWEPTPVLVAARDISGGTVLDQDMLRVEAIPSRLVTPSIVRSDLLASVQDAKLLLPMKQGDLLNFNMLQ | -0.064 |
| HMGWVMLVIMSRGASEAQINAVVEKIRAAGLTEHLSKGIERTIIGAIGEERKLEPEVFELLPGVEQALHIV | -0.342 |
| HMGYDSYDADTIPKLKIGSIVEHPKFGEGSIISKAGAEVTIAFKIKGVKKINLEYTSIKVLK | -0.935 |
| HMGYGEQEQEAQKYLALHALMSQDPTLAKMYQAPNQYKLMSHVMEQNGIKNVNDYLTDPQQLP | -0.00068 |
| HMGYKDIDKLSGVDLAIYRFIVEHDEQIPYMRVRELARGAHVSNSSVMRFIRKIGYDSFPEFKVSLRS | 0.0102 |
| HMGYPGLGSIGSKPLGDLLFQSKLFVKTKREFAEFKMANNNIVWGRRTQYLVRNYPLSVMEVFL | -0.0279 |
| HMHAGQIISQKIKESGISISHVAKHLKVQRATLYNLFEREVWPAHRLRTIEALLHIDLSDLYP | -1.62 |
| HMHANAALTPRQRLRLAQKIVDEEWTVAAAADYFRVSWPTAAKWARRYVELGEAGMADRSSRP | -2.1 |
| HMHDEKHHQLANEIARKWAALRGNRDFAAADELKNLAAEAGVELQATKQAVGQGALAKLKENFDPVKLEAL | 0.188 |
| HMHDLDALTGLSGEARSKVYEEGSVFVAGEMWSAKSDAVIPAGSSIRVVRREGFILVVEKDS | -1.12 |
| HMHDYTTIIGVIELRLNKISYDNVQKRYRIGRSGISLIMERYRDSGLSLDDLKQMPAEKVVNLIYPKD | -0.954 |
| HMHDYYDSIDAVTHDKSYESNLVFALKLGYTETQLQKALLKLGKKAREDQILEELIRIQKSSKA | 0.114 |
| HMHEGNWTLPNPMPIGTTLTLPEHSRLYISNLAGQRVFETSATSVEIPLLPKGTYLLRLETMNGHTTRKIL | -0.0423 |
| HMHELKIEKVAEAPNGAMRLLLSDGSEWVLGVKSWNRLNLSLEKILDVNVLRALEKESQYHLLRTKALEL | -0.395 |
| HMHFIMEYRIRAYVDELFESAPRTQRAYELKIELTQNLIDKYYALVSEGKSEQDAYNLTVMSIGDVREL | -0.298 |
| HMHGEAVVVPNVKGLPMRQAENEIYKQSLKAVAIDSSYVKGMPPGAILEQNPAGGSKVKKGRTVYLTINMD | -0.0918 |
| HMHGERVVTAGQTVRVVFTSNGLQVSSEGKALAAGAVGDDIQVRAASGKVIRGTVTGPGVVQV | 0.231 |
| HMHGLNQNKPIPIADIVNSVNNYLTSLGKKTITDNSVLSNLKKAAKYLNTAYNLVLRPDSLNMTVTLL | 0.0467 |
| HMHIMINPDQLSPEQIQSIRTWAEEGLDLNAIQKRLHEDLNIKLTFMDTRFLLQDLDIRIRQPEPEPEAEQ | -0.00841 |
| HMHINLEGLKKIDFRKKIGFLFGSEASGLSNKEVSYANYTLQIPTNINFKSLNLSHSLIIIAQFISSLLNS | -0.333 |
| HMHKIRRQTKITKSLLDQIEGIGSSRKKALLNHFGSAKAVGEAGETDLGTVKGISNSLAKKIYDFFHAT | -0.281 |
| HMHLDIGQLVQRILADIQVGKLADGQRKLPAEPVLMERYQVTRYTLRQALKQLSNMGYTYQMHGIGTFVRQ | -0.863 |
| HMHLKDEHGLTPKQRAFADEYVITLNATVSYKKIYSVKRDSVASTNGSRLLGNANVKAYIDKRLEE | -2.19 |
| HMHLKRQEAINLGAYLLGAELRIHRLSLEELGSERIDEMLAAINYKTLDDLLADIGLGNRPARFVARQLG | -1.53 |

| Sequence | soluble fraction (log2) |
| --- | --- |
| HMHLLGASIAAYRKKAGMTQEDLGRALFVSGQAVSRWERGGTPDSDMLPKIADVLGISLDTLFGRS | -0.559 |
| HMHLRYTYIYDNENRVTSKEASKWDSTQEAWVPYFKMNVSYVNNEVELSYARWNSKSNAYDSSIKKTI | -2.36 |
| HMHLTNIPKGFTPSFDTKQWIVEEFGERYNYDNELKIFINHYRASGTTKSDWQYAFRSWLLRAKKFT | -2.32 |
| HMHLTRYLHTMIRAANLDDTLDFFVEKLGLIEAYRYSNEAGRFTLVFLSAPDDLESAQSRQAPLVEITYN | -0.107 |
| HMHLYDMYNLTEKEISIIRLIANGLNNKEISQELFLSEGTIKNNITNILAKLELRDRTQLAIFAFKNKIVI | -0.484 |
| HMHMELHEKIRLARELNKWSQEEVAEKLEMSPSGYAKIERGETALNIPRLEQIAEIFNIDIWELVKA | -0.573 |
| HMHMHTADDFKQLAKHTSNGRLRTRYLALYHFKKGETRTQIAAYLGVARGSVNTWVSNYLAYGLEGLQS | -2.56 |
| HMHMIDDYLARIGQLIRDARQHRGWTQVQLAEALGTSQSAVNRIERGNQNISLEMIARIGEALGSEIVSLG | -1.62 |
| HMHMKTIEWDSLVLIMYKDMKYLKRINEGQSFHGKGGMLNYADLIGKTYGIRFGQYEIFEPSLEDIVMYG | -0.126 |
| HMHMSKKLADSISALRKKNGLSQEQLAEKIGISRQTVSNWERGIATPDVETLNLISKLFDEDLSVMING | 0.199 |
| HMHNISQTGRRIAGMTQERWAEALDISVESVRLYESGRGMPSDDVATRMVEVSGAPVLGYWH | -0.407 |
| HMHNPSYDMSKDVDILVMKFRDYNNLTDDEARFLLDKAKDAYYNTGKEILSDNEYDTLEKSLGQE | 0.178 |
| HMHPEPDPVLFIDGKEYPYDKLSELDETRVQSMTILPKKSAVKKYGDKYANRSIMEITLKKEN | 0.0957 |
| HMHPNPLTEQEIAVLKGIAQGLSNQEIADQLYLSNGTVRNYVTNILSKLDAGNRTEAANIAKESGW | 0.143 |
| HMHPSNQELTKVLAQGSELVLAQKYIEASQIFTRVIEIDQTWAEAWNKRATVFYLLQNYEASQKDIDEV | 0.0182 |
| HMHQKELLNLSYKEAKRYILDDFERVFFTNLLRKTGGNVSRAAQLAQVHRKNLYVKLTELGIDPRQFG | -1.43 |
| HMHQLQLDSRSRLHMTGVIEVESFDEATIVLTTTRGTLIVRGENLHLQLLRLDGGEVLVDGTVDSLSYE | -1.5 |
| HMHQPPDLDDFEAFVGRVKPALLQALVATYGPVDGREATVDALSWAWEHWDRLADVDHPVGYLYRV | 0.0368 |
| HMHRFAVLDTVREVAAGGVAATLSIGVGRDADSFDALFKNASMALEMALSRGGDQAVVKDRMNFQFYGG | 0.0659 |
| HMHRGEIVDGVIASVNPRSILIDIGGKSDALVHPRELERMSDEDLRSLKPGQDVSVYVIETDSDGTMLVSL | -0.0402 |
| HMHSEISGGSKDPFRFMPHLGVEDIHAETDRLSGSGVEFIREPDQESWGGWVATFKDPDGNILQLLQL | 0.25 |
| HMHSQVFTDPDKAKNAVVKLGAPLVVKADGLALGKGVIIAQNPQAAKEAVASVGSSGISSISVT | 0.0607 |
| HMHTDDDGITEAFPHLRLLSLGEDILDLLEKSRFIRKLNNELVYYVVDFREQNSIDGRRYHPSIYHNL | -0.258 |
| HMHTGEVVNGKVIDVKEDQIILNVGFKSDGIITRSEYSNDNSLDLRTVVNVGDDMEAKVLKINDGEGQVLL | -0.185 |
| HMHTGLAELTDRERDVLRLIATGMTNAAIGSALAYSPSTIRADTVSIYRKLEVRGRAEAAAVAVAAGLTQP | -1.26 |
